Molecular target: T1, C3 domain of Streptococcus mutans adhesin P1 (recombinant C3 polypeptide, 175-residue construct) (Streptococcus mutans)
T1 chain: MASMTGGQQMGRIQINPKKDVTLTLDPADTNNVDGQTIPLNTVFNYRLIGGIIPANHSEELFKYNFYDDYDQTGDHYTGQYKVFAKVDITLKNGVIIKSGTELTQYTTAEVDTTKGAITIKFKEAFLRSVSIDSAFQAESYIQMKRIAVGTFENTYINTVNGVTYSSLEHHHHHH
Assay: ITC

B1: A3VP1 (386–864) polypeptide of Streptococcus mutans adhesin P1 (domain or fragment)
chain: AANEADYQAKLTAYQTELARVQKANADAKAAYEAAVAANNAANAALTAENTAIKKRNADAKADYEAKLAKYQADLAKYQKDLADYPVKLKAYEDEQASIKAALAELEKHKNEDGNLTEPSAQNLVYDLEPNANLSLTTDGKFLKASAVDDAFSKSTSKAKYDQKILQLDDLDITNLEQSNDVASSMELYGNFGDKAGWSTTVSNNSQVKWGSVLLERGQSATATYTNLQNSYYNGKKISKIVYKYTVDPKSKFQGQKVWLGIFTDPTLGVFASAYTGQVEKNTSIFIKNEFTFYDEDGKPINFDNALLSVASLNRENNSIEMAKDYTGKFVKISGSSIGEKNGMIYATDTLNFRQGQGGARWTMYTRASEPGSGWDSSDAPNSWYGAGAIRMSGPNNSVTLGAISSTLVVPADPTMAIETGKKPNIWYSLNGKIRAVNVPKVTKEKPTPPVKPTAPTKPTYETEKPLKPAPVAPNYEKE
KD of the site with intermediate binding constant (two-site fit): 35.2 ± 7 µM
